Entries after “also recorded” stand apart in the source; their conditions may differ.
Assays:
[1] = test system: Smad2 transcriptional activity; assay: Dual luciferase reporter assay for Smad2 transcriptional activity; assay type: cell-based; conditions: Smad2-suppressed HeLa cells, luciferase, 10 ng/ml TGF-β for 48 h
Procedure: Two separate gels were used to accommodate all mutants. An empty vector transfection (vehicle) was used for a negative control for each gel. Glyceraldehyde 3-phosphate dehydrogenase (GAPDH) was used as a gel loading control. Data in A and B are quantified in Fig. S3A. C, TGF-β stimulated (10 ng/ml for 1 h) nuclear translocation of mouse EGFP-WT, -K420A, -W422A, -E425K, -Y426A, and -R427A/R428A transfected into HeLa cells whose endogenous Smad2 was suppressed by siRNA. For Smad2-WT, the effect of PI(4,5)P2 depletion was measured. Arrows indicate nuclear accumulation of EGFP-WT and EGFP-E425K. Scale bars indicate 10 μm. D, quantification of (C). (Inuc/Icyto) was calculated from total nuclear and cytosolic fluorescence intensity values. Blank and black bars indicate values before and after TGF-β stimulation. Error bars indicate S.D. values from >3 measurements (n = 10). E, Smad2 transcriptional activity measured by the luciferase assay. Blank and black bars indicate values before and after TGF-β stimulation. Error bars indicate S.D. values from >3 measurements (n = 10).
HeLa cells were plated on 6-well plates at the density of ∼1.5 × 10^5 and treated with siRNA as described above. The reporter gene containing three TGF-β/activin response element (ARE) coupled with the luciferase gene (pGL2 3ARE-Lux: Addgene) was used for enhanced activity ([55]). On translocation into the nucleus, receptor-activated Smad2 associates with the DNA-binding protein FAST1 to form a transcriptional complex on the ARE of the Mix.2 promoter. After 24 h, the cell media were replaced with fresh media and cells were cotransfected with 375 ng pGL2 3ARE-Lux experimental vector, 37.5 ng pGL4.73[hRluc/SV40] internal control vector (Promega), 337.5 ng FAST1, and 750 ng of pcDNA 3.1 plasmid harboring Smad2 WT or mutant using the jetPRIME transfection system (Polyplus transfection) according to the manufacturer's protocols. After 24 h of transfection, cells were placed in fresh media and stimulated with 10 ng/ml TGF-β for 48 h. Then the cells were washed with phosphate buffer saline, and the dual luciferase reporter assay was performed according to the manufacturer's protocols (Promega). All 3ARE-Luc activity values were normalized using the pGL4.73[hRluc/SV40] values as a reference.

[2] = SPR membrane binding to POPC/POPS/PI(4,5)P2 vesicles; conditions: SPR; for affinity for POPC/POPS/PI(4,5)P2 (77:20:3) relative to WT: Kd comparison, in words; for Kd: L1 chip, 23 °C, 20 mM Tris, pH 7.4, 0.16 M NaCl, POPC/POPS/PI(4,5)P2 (77:20:3), average ±S.D., n = 3, read-out: Kd for lipid binding, PC/PS/PI(4,5)P2; for PI(4,5)P2 selectivity over POPC/POPS (80:20) / binding to POPC/POPS/PI(4,5)P2 (77:20:3): RU/RUmax, 100 nM protein
Text: It has been generally thought that Smad2 and Smad3 are targeted to the activated TGF-β signaling complex by direct interaction with TβRI ([1], [2]) or via SARA ([7]). However, it has been shown that many cytosolic proteins that are targeted to membrane proteins or membrane-anchored signaling complexes have affinity for membrane lipids ([14]), phosphoinositides (PtdInsPs) in particular, and that their membrane recruitment is mediated by coincident lipid–protein and protein–protein interactions ([15], [16]). For most of these proteins, their PtdInsP specificity directs their membrane targeting behaviors: e.g., PI(4,5)P2-specific proteins are recruited to PM where the highest concentration of PI(4,5)P2 is found, whereas PI(3)P-specific proteins are targeted to PI(3)P-rich EEs ([17], [18]). To resolve uncertainty about the functional location of the activated TGF-β signaling complex, we thus explored the possibility that lipid-binding activity of Smad2 may play a role in specific targeting of Smad2 to the active TGF-β receptor complex either at the PM or at EEs. Lipid-binding activity of Smad proteins has not been reported to date. We thus measured the binding of bacterially expressed Smad2 to large unilamellar vesicles (LUVs) containing various lipids by surface plasmon resonance (SPR) analysis ([19], [20]). Lipid selectivity determined by SPR analysis is typically reported as the relative resonance unit (RU) values for different lipids at a given protein concentration ([21], [22]). Although simple and intuitive, this type of analysis can sometimes yield misleading and erroneous results because some proteins show widely different RU values when bound to different lipid surfaces. Thus, a more reliable parameter that represents the fraction of the membrane bound protein molecules at a given protein concentration would be a normalized value of RU/RUmax where RUmax indicates the maximal RU value when a given lipid surface is saturated with the protein molecules. We thus estimated RUmax for different lipid species by employing the highest protein concentration experimentally feasible (e.g., 1 μM) and determined RU/RUmax for different lipids at the protein concentration that allows robust comparison (e.g., 100 nM). Once the lipid selectivity has been determined by this semiquantitative approach, we then rigorously determined and compared Kd values for selected lipids for more accurate quantitative determination of lipid selectivity.
Figure 1 Membrane-binding properties of Smad2 FL protein and MH2 domain determined by SPR analysis.A, PtdInsP selectivity of Smad2-FL determined using POPC/POPS/PtdInsP (77:20:3 in mole ratio) LUVs coated on the L1 sensor chip. The protein concentration was 100 nM. PIP3 indicates PI(3,4,5)P3. B, determination of Kd for binding of Smad2 FL to different LUVs. The protein concentration was varied from 0 to 500 nM. C, PI(4,5)P2 concentration dependence of membrane binding of Smad2-FL determined using POPC/POPS/PI(4,5)P2 (77-x:20:x, x = 0–5 mol%) LUVs. The protein concentration was 100 nM. D, PtdInsP selectivity of the Smad2 MH2 domain determined using POPC/POPS/PtdInsP (77:20:3 in mole ratio) LUVs. The protein concentration was 100 nM. Normalized RU values (RU/RUmax) were used for all figures but (C) for more accurate determination of PtdInsP selectivity. RUmax values determined for different vesicles at 1 μM Smad2 were: 280 ± 20 for POPC/POPS/PI(4,5)P2 (77:20:3), 370 ± 10 for POPC/POPS/PI(3,4)P2 (77:20:3), 400 ± 15 for POPC/POPS/PI(3,4,5)P3 (or PIP3) (77:20:3), 400 ± 20 for POPC/POPS/PI(3)P (77:20:3), and 380 ± 20 for POPC/POPS (80:20). Only the association phases of the sensorgrams are shown and used for further analysis. Each set of sensorgrams shown in A and D are representatives of >5 independent measurements. Data points shown in B and C are the average ±S.D. values from triplicate measurements. […]

B1: Smad2-W422A: W422A mutant of full-length Smad2; specific PI(4,5)P2 binding-compromised (protein)
chain: MSSILPFTPPVVKRLLGWKKSAGGSGGAGGGEQNGQEEKWCEKAVKSLVKKLKKTGRLDELEKAITTQNCNTKCVTIPSTCSEIWGLSTANTVDQWDTTGLYSFSEQTRSLDGRLQVSHRKGLPHVIYCRLWRWPDLHSHHELKAIENCEYAFNLKKDEVCVNPYHYQRVETPVLPPVLVPRHTEILTELPPLDDYTHSIPENTNFPAGIEPQSNYIPETPPPGYISEDGETSDQQLNQSMDTGSPAELSPTTLSPVNHSLDLQPVTYSEPAFWCSIAYYELNQRVGETFHASQPSLTVDGFTDPSNSERFCLGLLSNVNRNATVEMTRRHIGRGVRLYYIGGEVFAECLSDSAIFVQSPNCNQRYGWHPATVCKIPPGCNLKIFNNQEFAALLAQSVNQGFEAVYQLTRMCTIRMSFVKGAGAEYRRQTVTSTPCWIELHLNGPLQWLDKVLTQMGSPSVRCSSMS
modifications: left off: His6, N-terminal, state not stated
[1]
  Smad2 transcriptional activity after TGF-β stimulation: much reduced activity even after TGF-β stimulation
[2]
  affinity for POPC/POPS/PI(4,5)P2 (77:20:3) relative to WT: three- to five-fold lower affinity
  Kd: 470 ± 96 nM
  PI(4,5)P2 selectivity over POPC/POPS (80:20): essentially no PI(4,5)P2 selectivity; also recorded: lost the PI(4,5)P2 selectivity
  binding to POPC/POPS/PI(4,5)P2 (77:20:3): greatly reduced binding

B2: Smad2-Y426A: Y426A mutant of full-length Smad2; specific PI(4,5)P2 binding-compromised (protein)
chain: MSSILPFTPPVVKRLLGWKKSAGGSGGAGGGEQNGQEEKWCEKAVKSLVKKLKKTGRLDELEKAITTQNCNTKCVTIPSTCSEIWGLSTANTVDQWDTTGLYSFSEQTRSLDGRLQVSHRKGLPHVIYCRLWRWPDLHSHHELKAIENCEYAFNLKKDEVCVNPYHYQRVETPVLPPVLVPRHTEILTELPPLDDYTHSIPENTNFPAGIEPQSNYIPETPPPGYISEDGETSDQQLNQSMDTGSPAELSPTTLSPVNHSLDLQPVTYSEPAFWCSIAYYELNQRVGETFHASQPSLTVDGFTDPSNSERFCLGLLSNVNRNATVEMTRRHIGRGVRLYYIGGEVFAECLSDSAIFVQSPNCNQRYGWHPATVCKIPPGCNLKIFNNQEFAALLAQSVNQGFEAVYQLTRMCTIRMSFVKGWGAEARRQTVTSTPCWIELHLNGPLQWLDKVLTQMGSPSVRCSSMS
modifications: left off: His6, N-terminal, state not stated
[1]
  Smad2 transcriptional activity after TGF-β stimulation: much reduced activity even after TGF-β stimulation
[2]
  affinity for POPC/POPS/PI(4,5)P2 (77:20:3) relative to WT: three- to five-fold lower affinity
  Kd: 400 ± 44 nM
  PI(4,5)P2 selectivity over POPC/POPS (80:20): essentially no PI(4,5)P2 selectivity; also recorded: lost the PI(4,5)P2 selectivity
  binding to POPC/POPS/PI(4,5)P2 (77:20:3): greatly reduced binding

B3: Smad2- R427A/R428A: double mutant of full-length Smad2; PI(4,5)P2 and TβRI binding-compromised (protein)
chain: MSSILPFTPPVVKRLLGWKKSAGGSGGAGGGEQNGQEEKWCEKAVKSLVKKLKKTGRLDELEKAITTQNCNTKCVTIPSTCSEIWGLSTANTVDQWDTTGLYSFSEQTRSLDGRLQVSHRKGLPHVIYCRLWRWPDLHSHHELKAIENCEYAFNLKKDEVCVNPYHYQRVETPVLPPVLVPRHTEILTELPPLDDYTHSIPENTNFPAGIEPQSNYIPETPPPGYISEDGETSDQQLNQSMDTGSPAELSPTTLSPVNHSLDLQPVTYSEPAFWCSIAYYELNQRVGETFHASQPSLTVDGFTDPSNSERFCLGLLSNVNRNATVEMTRRHIGRGVRLYYIGGEVFAECLSDSAIFVQSPNCNQRYGWHPATVCKIPPGCNLKIFNNQEFAALLAQSVNQGFEAVYQLTRMCTIRMSFVKGWGAEYAAQTVTSTPCWIELHLNGPLQWLDKVLTQMGSPSVRCSSMS
modifications: left off: His6, N-terminal, state not stated
[1]
  Smad2 transcriptional activity after TGF-β stimulation: much reduced activity even after TGF-β stimulation
[2]
  affinity for POPC/POPS/PI(4,5)P2 (77:20:3) relative to WT: three- to five-fold lower affinity
  Kd: 340 ± 53 nM
  PI(4,5)P2 selectivity over POPC/POPS (80:20): essentially no PI(4,5)P2 selectivity; also recorded: lost the PI(4,5)P2 selectivity
  binding to POPC/POPS/PI(4,5)P2 (77:20:3): greatly reduced binding

B4: Smad2-K420A: K420A mutant of full-length Smad2; predominantly TβRI binding-compromised (protein)
chain: MSSILPFTPPVVKRLLGWKKSAGGSGGAGGGEQNGQEEKWCEKAVKSLVKKLKKTGRLDELEKAITTQNCNTKCVTIPSTCSEIWGLSTANTVDQWDTTGLYSFSEQTRSLDGRLQVSHRKGLPHVIYCRLWRWPDLHSHHELKAIENCEYAFNLKKDEVCVNPYHYQRVETPVLPPVLVPRHTEILTELPPLDDYTHSIPENTNFPAGIEPQSNYIPETPPPGYISEDGETSDQQLNQSMDTGSPAELSPTTLSPVNHSLDLQPVTYSEPAFWCSIAYYELNQRVGETFHASQPSLTVDGFTDPSNSERFCLGLLSNVNRNATVEMTRRHIGRGVRLYYIGGEVFAECLSDSAIFVQSPNCNQRYGWHPATVCKIPPGCNLKIFNNQEFAALLAQSVNQGFEAVYQLTRMCTIRMSFVAGWGAEYRRQTVTSTPCWIELHLNGPLQWLDKVLTQMGSPSVRCSSMS
modifications: left off: His6, N-terminal, state not stated
[1]
  Smad2 transcriptional activity after TGF-β stimulation: much reduced activity even after TGF-β stimulation
[2]
  Kd: 120 ± 12 nM
  binding to POPC/POPS/PI(4,5)P2 (77:20:3): modestly and similarly reduced binding to both vesicles
[2]; decrease in affinity vs WT
  lower affinity for POPC/POPS/PI(4,5)P2 (77:20:3) than WT: 20%

— article PMC8567202, “Phosphoinositide-binding activity of Smad2 is essential for its function in TGF-β signaling” (The Journal of Biological Chemistry, 2021)
